The text below walks through data of patent US20250101098A1.

What all share (test): flow cytometry, HEK 293 cells overexpressing the target
(In general: In flow cytometry, cells or beads pass a laser one at a time.)

For experiment [1], the target named is cynomolgus monkey nectin-4 protein expressed on the surface of HEK 293 cells (cynomolgus monkey).
Experiment [2] has as its target rat nectin-4 protein expressed on the surface of HEK 293 cells (rat) (UniProt D3ZET1).
The target of experiment [3] is human nectin-4 protein expressed on the surface of cells (human) (UniProt Q96NY8).
Chain of human nectin-4 protein expressed on the surface of cells (human) (Q96NY8 32-510 limits assumed): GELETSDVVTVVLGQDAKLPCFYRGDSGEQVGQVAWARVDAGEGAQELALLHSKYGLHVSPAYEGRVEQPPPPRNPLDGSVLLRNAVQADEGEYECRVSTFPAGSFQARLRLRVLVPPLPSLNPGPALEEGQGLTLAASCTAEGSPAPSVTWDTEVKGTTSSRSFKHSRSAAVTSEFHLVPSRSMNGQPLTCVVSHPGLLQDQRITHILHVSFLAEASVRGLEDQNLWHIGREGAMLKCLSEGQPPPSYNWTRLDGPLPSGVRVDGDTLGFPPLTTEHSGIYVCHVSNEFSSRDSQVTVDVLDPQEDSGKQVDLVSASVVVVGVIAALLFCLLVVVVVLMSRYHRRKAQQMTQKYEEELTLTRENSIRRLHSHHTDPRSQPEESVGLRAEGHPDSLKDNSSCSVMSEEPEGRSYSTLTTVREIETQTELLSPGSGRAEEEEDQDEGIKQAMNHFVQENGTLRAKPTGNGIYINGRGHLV
Experiment [4] concerns the target mouse nectin-4 protein expressed on the surface of HEK 293 cells (mouse) (UniProt Q8R007).

Chain of mouse nectin-4 protein expressed on the surface of HEK 293 cells (mouse) (Q8R007 31-508): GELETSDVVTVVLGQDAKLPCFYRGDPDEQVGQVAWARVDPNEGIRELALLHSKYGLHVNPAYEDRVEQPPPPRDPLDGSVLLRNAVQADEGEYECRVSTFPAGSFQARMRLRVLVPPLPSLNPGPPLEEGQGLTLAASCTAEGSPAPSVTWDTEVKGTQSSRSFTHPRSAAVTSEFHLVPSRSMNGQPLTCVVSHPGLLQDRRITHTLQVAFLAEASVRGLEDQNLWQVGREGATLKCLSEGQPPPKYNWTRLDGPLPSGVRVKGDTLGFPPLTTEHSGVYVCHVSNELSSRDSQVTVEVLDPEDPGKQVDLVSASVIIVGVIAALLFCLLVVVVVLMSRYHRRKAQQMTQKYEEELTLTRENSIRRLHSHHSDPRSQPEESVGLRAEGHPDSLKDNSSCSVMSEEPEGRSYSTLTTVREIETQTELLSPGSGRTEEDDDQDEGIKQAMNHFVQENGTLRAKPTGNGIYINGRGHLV

For the substance Anti-FITC Isotype Control (antibody), the Flow data in experiment [1] is 189; in experiment [2] it was 196; in experiment [3], 132; in experiment [4], 163.
